From the supplement of paper PMC10567573

B1: SCNN1D (parent)
chain: RRPSPVLRHLELLDEFARENIDSL
B2: CHMP4C (parent)
chain: TNIRLPNVPSSSLPAQPNRKPGMS

Variants of: B1
Experiment: protein stability index of a GFP-peptide fusion (GPS, HEK-293T) (PSI 1-6); higher = more stable
Conditions: c terminus: a fixed tail appended
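Also: lentivirally expressed fusions sorted by FACS into six bins by GFP to DsRed ratio, PSI derived from sequencing read proportions per bin multiplied by bin number.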

Protein stability index: each site, then its substitutions
P5: R 3.63; G 3.53; D 3.08; V 2.43; F 2.19; Q 4.62; N 3.22; C 2.17; K 3.59; S 2.85; W 1.93; L 2.06; E 3.77; I 2.27; Y 2.65; M 2.5; A 2.4; H 2.97; T 3.05
L7: W 2.18; Y 3.24; D 4.49; E 3.53; M 2.9; T 3.48; A 3.04; C 3.53; Q 3.4; F 3.29; P 4.08; R 3.64; S 3.38; K 3.82; N 3.6; H 3.4; G 4.17; V 3.1; I 3.1
S4: A 2.63; F 2.47; V 2.82; N 2.34; Q 3.89; L 2.66; H 2.14; Y 2.5; W 2.35; E 3.61; G 2.65; K 3.14; I 2.67; R 2.87; M 2.88; C 2.99; T 3.15; D 3.68; P 3.17
H9: E 3.99; C 2.48; D 3.99; A 2.65
R8: S 3.77; E 4.4; H 3.61; K 3.5; T 3.59; L 2.49; V 2.99; N 4.34; A 3.33; P 4.18; Q 4.09; Y 2.87; D 4.71; C 2.09; I 2.37; M 3.43; F 2.61; W 2.7
R2: E 3.22; S 4.32; N 3.25; G 3.52; K 2.85; A 3.98; C 3.38; D 3.41; H 2.68; Y 1.63; I 2.6; P 4.61; W 1.78; L 1.94; T 3.55; F 2.22; M 2.5; Q 3.21; V 2.93
V6: Q 2.82; W 1.79; M 2.31; R 2.43; I 1.95; T 2.98; K 2.63; C 2.72; E 3.37; H 3.79; A 2.86; L 1.91; P 4.22; Y 1.96; N 3.77; S 3.48; G 3.96; D 4.09; F 2.28
R1: W 2.18; M 2.19; D 2.86; V 2.36; G 2.46; C 2; Q 2.69; A 2.1; K 2.92; N 2.5; L 2.21; E 3.36; S 2.63; F 1.99; I 2.1; H 2.43; P 2.58; Y 1.72; T 2.38
P3: E 2.38; I 1.96; D 2.74; H 1.96; C 2.73; A 2.35; V 1.44; R 2.85; N 3.06; Y 2.31; K 3.06; W 1.76; L 2.42; M 2.26; S 2.72; G 2.75; F 1.88; Q 1.92; T 2.83

Variants of: B2
Experiment: as above
Conditions: c terminus: a fixed tail appended

Protein stability index: each site, then its substitutions
Q16: T 4.53; F 4.05; Y 3.99; I 4.35; K 4.03; L 4.32; M 3.7; A 4.7; R 5.25; D 4.24; E 4.69; N 4.73; V 4.71; W 3.34; C 4.39; P 4.94; H 4.44; S 4.91; G 4.51
P21: K 4.65; L 4.29; Q 4.96; H 4.45; G 4.31; A 5; D 4.59; F 4.32; Y 4.05; V 4.14; N 4.11; C 4.24; R 4.94; T 4.47; M 4.32; I 4.31; S 4.41; E 4.5; W 3.4
G22: M 4.2; P 4.24; E 4.68; N 5.03; L 4.22; S 4.08; I 4.39; D 4.78; V 4.29; H 4.32; K 4.64; R 4.92; T 4.21; F 4.2; A 4.48; Q 4.88; Y 4.01; C 4.4; W 3.75
S24: F 4.21; Y 4.34; P 4.81; A 4.48; D 3.96; I 4.27; Q 4.69; L 4.15; K 4.94; G 4.14; V 4.86; H 4.5; R 4.67; T 4.62; E 4.83; N 4.57; M 3.99; W 3.8; C 4.2
A15: P 4.71; T 4.55; Q 5.06; R 4.71; V 4.59; W 4.01; S 4.56; Y 4.26
N18: A 4.45; E 4.41; K 4.62; R 4.69; C 3.97; D 4.51; P 4.58; T 4.89; W 3.42; S 4.21; Q 4.87; F 4.33; M 4.66; G 4.25; H 4.85; V 4.6; Y 4.36; I 4.3; L 4.25
M23: G 5.2; Q 5.23; D 5.58; V 4.82; R 4.04; S 5.17; P 4.28; H 4.92; K 4.37; E 5.61; C 4.84; L 4.88; F 4.42; A 5.03; W 3.96; I 4.37; Y 4.7; T 5.17; N 5.13
P17: H 4.26; K 4.61; R 4.2; A 3.6; S 4.21; L 4.14; D 4.35; Y 4.05; E 4.96; I 3.87; M 4.56; C 3.76; V 4.67; F 4.24; T 4.75; N 4.72; W 3.64; G 4.71; Q 3.82
K20: A 4.43; G 4.39; R 4.4; E 4.27; Y 4.02; Q 4.55; D 4.44; P 3.77; H 4.4; F 3.79; M 3.75; W 3.41; C 4.3; I 3.61; V 3.66; S 4.56; N 4.41; L 4.41; T 3.92
R19: F 4.13; V 4.71; W 3.6; M 4.37; Q 4.62; K 4.33; C 4.27; T 4.57; A 4.61; G 4.49; L 4.58; E 4.86; N 4.69; I 4.61; D 4.66; H 4.33; S 4.71; Y 3.94; P 4.77
